Target: G5_(1–1508)-FLAG
Experiment: pull-down
Conditions: HEK293 cell lysates; western blot with anti-FLAG and anti-Xpress; n = 2; read off a plot

Work on “Xpress-His G5_(1–1508) mutant A951E [not stated] / G5_(1–1508)-FLAG [not stated] chain 1 A951E” yielded a response (relative intensity (PD/In)) of 1.3.

Reference: article PMC11213948 (2024)
